In article PMC8588432, “Selection and Characterization of Vimentin-Binding Aptamer Motifs for Ovarian Cancer”:

B1: V3M2 (XNA)
DNA: ACCTCTTCAAGAACATCCCTGTCACGGATCCTCTAGAGCA
modifications: monothioated phosphates 3' of adenines (shown in red, positions not in text)
B2: V5M2 (XNA)
DNA: TAGACCCAGCTGGTCCGGAAAATAAGATGTCACGGATCCTC
modifications: monothioated phosphates 3' of adenines (shown in red, positions not in text)

Molecular target: vimentin (human, UniProt P08670 2-466)
Test: filter binding; Filter binding: 20 mM Tris, 150 mM NaCl, pH 8.0, 2 h, room temperature, 10 uL; flow cytometry: fixed IGROV cells, 22 C, 1 h; microscopy: 37 C, 1 h
Settings: label: 5'-biotin; predicted stem-loop

Chain of vimentin (P08670 2-466): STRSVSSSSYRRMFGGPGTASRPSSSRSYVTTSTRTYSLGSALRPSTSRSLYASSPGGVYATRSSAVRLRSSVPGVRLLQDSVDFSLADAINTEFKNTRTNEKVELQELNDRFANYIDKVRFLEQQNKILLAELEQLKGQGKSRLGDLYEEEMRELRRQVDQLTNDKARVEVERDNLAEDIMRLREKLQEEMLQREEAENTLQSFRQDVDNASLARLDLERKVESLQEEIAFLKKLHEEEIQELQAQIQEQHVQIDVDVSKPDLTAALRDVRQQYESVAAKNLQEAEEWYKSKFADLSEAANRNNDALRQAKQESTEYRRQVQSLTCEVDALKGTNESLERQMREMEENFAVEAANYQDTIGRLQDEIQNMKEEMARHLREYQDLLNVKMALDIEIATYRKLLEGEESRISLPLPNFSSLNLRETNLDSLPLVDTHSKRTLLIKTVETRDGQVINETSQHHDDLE

Binder	Kd [nM]
B1	18.9
B2	47.4
